Assay results: publication doi:10.1101/2024.07.18.604210

Assays:
[1] = biological target: egSepF-CTD G163K (E. gallinarum); experiment: AUC
[2] = biological target: saSepF-CTD G145K (S. aureus); experiment: AUC

Substance egSepF-CTD G163K (domain or fragment) has a stoichiometry N [1] of 2.

With saSepF-CTD G145K (domain or fragment) the stoichiometry N [2] was 2.
